Assay results: patent US20050042747A1, “Hivgp120-induced bob/gpr15 activation” (priority 2001, published 2005)

Tested on: HT-29 cells
Assay: Calcium signaling in HT-29 cells (Fluo 4, confocal microscope)
Assay type: cell-based, human
Experimental: HT-29 cells (from ATCC) were grown in DMEM-F12 with 10% bovine calf serum, and were used 24-48 hours after plating. The Ghost (3) cells were obtained from the AIDS Research and Reference Reagent Program, and were grown DMEM with 10% bovine calf serum supplemented with 500 μg/ml G418, 100 μg/ml hygromycin, and 1 μg/ml puromycin.^27 These cells were used 24 to 96 hours after plating.
Calcium studies were done on HT-29 cells and Ghost (3) cells loaded with Fluo 4. The cells were placed in Locke's buffer containing 5 μg/ml Fluo 4 AM ester (Molecular Probes) for 20 to 30 minutes, then in Locke's buffer for an additional 30 minutes before testing. Various concentrations of gp120IIIB (X4 trophic), gp120CM235 (R5 trophic), gp120mN (X4 trophic), gp12093TH975 (nonsyncytium-inducing primary isolate from an asymptomatic subject, trophism undetermined but likely R5), and gp120SF2 (X4R5 trophic), ranging from 10 nM to less than 1 pM, were added in Locke's buffer.^6 The gp120 proteins were obtained from the AIDS Research Reagent Referral Program. Some HT-29 cells were given one of the following pretreatments: 50 μg/ml anti-Bob37 overnight, 1 μg/ml pertussis toxin overnight, or 4.6 μg/ml U73122 for one hour. With the HT-29 cells only, similar tests were also performed with SDF-1, MIP-1α, MIP-1β, and RANTES rather than gp120. The cells were visualized every 4 seconds in a confocal microscope, using 488 nm argon laser excitation and detection filters appropriate for fluorescein-like dyes.
For the first two or three days after plating, gp120 induces an immediate (within 4 seconds) calcium flux in undifferentiated HT-29 cells. The cells had previously been loaded with Fluo-4 AM ester (Molecular Probes, Eugene Oreg.) 5 micrograms/ml in the presence of Pleuronic F-127 0.02% in Locke's buffer for 30 minutes, then incubated at room temperature for an additional 30 minutes. Gp120IIIB was added while the cells were on an inverted confocal microscope using a 488 nm argon laser, with detection filters suitable for fluorescein-like dyes. […]

Molecule	calcium signaling in HT-29 cells, in words
MIP-1β: natural ligand of CCR5 (protein, UniProt P13236 24-92, looked up, ends and bridges not checked, natural ligand of CCR5) C-C motif chemokine 4: APMGSDPPTACCFSYTARKLPRNFVVDYYETSSLCSQPAVVFQTKRSKQVCADPSESWVQEYVYDLELN	induced similar calcium signaling
RANTES: natural ligand of CCR5 (protein, UniProt P13501 24-91, looked up) C-C motif chemokine 5: SPYSSDTTPCCFAYIARPLPRAHIKEYFYTSGKCSNPAVVFVTRKNRQVCANPEKKWVREYINSLEMS	induced similar calcium signaling
MIP-1α: natural ligand of CCR5 (protein, UniProt P10147 24-92, looked up) C-C motif chemokine 3: SLAADTPTACCFSYTSRQIPQNFIADYFETSSQCSKPGVIFLTKRSRQVCADPSEEWVQKYVSDLELSA	induced similar calcium signaling
